The assay concerns the target mCherry-TurboID-CD9. The assay can be described thus: proximity labelling + proximity ligation.

The results in this text go back to doi:10.1101/2025.10.22.684016.

For the molecule “Gabrb3 (from UniProt P63080 26-473) (natural protein)”, the PLA puncta (Streptavidin–Gabrb3), APP-TB mice was found to be 1530 puncta and the PLA puncta (Streptavidin–Gabrb3), WT-TB mice amounted to 1500 puncta. For the molecule “Ncam1 (from UniProt P13595 20-1115) (natural protein)”, the PLA puncta (Streptavidin–Ncam1), APP-TB mice stood at 1790 puncta and the PLA puncta (Streptavidin–Ncam1), WT-TB mice was 1260 puncta.

B1: Gad1 (enzyme)
chain: MASSTPSPATSSNAGADPNTTNLRPTTYDTWCGVAHGCTRKLGLKICGFLQRTNSLEEKSRLVSAFRERQSSKNLLSCENSDQGARFRRTETDFSNLFAQDLLPAKNGEEQTAQFLLEVVDILLNYVRKTFDRSTKVLDFHHPHQLLEGMEGFNLELSDHPESLEQILVDCRDTLKYGVRTGHPRFFNQLSTGLDIIGLAGEWLTSTANTNMFTYEIAPVFVLMEQITLKKMREIVGWSNKDGDGIFSPGGAISNMYSIMAARYKYFPEVKTKGMAAVPKLVLFTSEHSHYSIKKAGAALGFGTDNVILIKCNERGKIIPADLEAKILDAKQKGYVPLYVNATAGTTVYGAFDPIQEIADICEKYNLWLHVDAAWGGGLLMSRKHRHKLSGIERANSVTWNPHKMMGVLLQCSAILVKEKGILQGCNQMCAGYLFQPDKQYDVSYDTGDKAIQCGRHVDIFKFWLMWKAKGTVGFENQINKCLELADYLYAKIKNREEFEMVFDGEPEHTNVCFWYIPQSLRGVPDSPERREKLHRVAPKIKALMMESGTTMVGYQPQGDKANFFRMVISNPAATQSDIDFLIEEIERLGQDL
Regarding B1, the PLA puncta (Streptavidin–Gad1), APP-TB mice was 2120 puncta.
